# Target: L-plastin EF construct (EF-hand headpiece domain, H5 region omitted) (human)
# Assay: SPR; EF construct immobilised by its sole cysteine (Cys42) on a CM5 chip by thiol coupling; peptides injected; BIAcore X100; 10 mM Tris-HCl pH 7.5, 150 mM KCl, 1 mM CaCl2, 0.005% Tween-20; 30 uL/min, contact 1 min, 25 °C
binder,measurement,value
Ac-STDVAKTFRKAINKKEGI-NH2 [synthetic H5 peptide representing the H5 region of LPL (residues 83-100)],Kd,3.52 µM

# Reference: paper PMC5286426, “The Calcium-Dependent Switch Helix of L-Plastin Regulates Actin Bundling” (Scientific Reports, 2017)
